Experimental data as given in PMC3082182 (The Journal of Cell Biology, 2011).

Target: GST–FL Rngo (Drosophila melanogaster, UniProt Q9VXF9 1-458)
Experiment: pull-down

B1: FL MBP-Rpn10 (natural protein)
chain: MVLESTMICFDNSDFQRNGDYFPTRLIVQRDGINLVCLTKLRSNPENNVGLMTLSNTVEVLATLTSDAGRIFSKMHLVQPKGEINLLTGIRIAHLVLKHRQGKNHKMRIVVFVGSPINHEEGDLVKQAKRLKKEKVNVDIVSFGDHGNNNEILTAFINALNGKDGTGSHLVSVPRGSVLSDALLSSPIIQGEDGMGGAGLGGNVFEFGVDPNEDPELALALRVSMEEQRQRQESEQRRANPDGAPPTGGDAGGGGGVSGSGPGNEESAGAENEANTEEAMLQRALALSTETPEDNLPDFANMTEEEQIAFAMQMSMQDAPDDSVTQQAKRPKTDEANAPMDVDEDYSEVIGDPAFLQSVLENLPGVDPQSEAVRDAVGSLNKDKDKKSDGKDSQKK
  binding result: binds
